The results in this text go back to publication PMC10849882 (The Journal of Cell Biology, 2024).

This data set deals with the molecule itself. As to the kind of experiment: negative stain EM.

B1: IMPDH1(514)-S477D (enzyme)
chain: not shown
On to B1, for which the binding result is listed as “binds”.

B2: IMPDH1(514)-WT (enzyme)
chain: not shown
Take B2: the binding result was “binds”.
